The values below are quoted from earlier work in paper PMC12475976.

The data set concerns the target SREBF1 (Homo sapiens) (UniProt P36956).

Chain of Vav2 (P52735 whole entry): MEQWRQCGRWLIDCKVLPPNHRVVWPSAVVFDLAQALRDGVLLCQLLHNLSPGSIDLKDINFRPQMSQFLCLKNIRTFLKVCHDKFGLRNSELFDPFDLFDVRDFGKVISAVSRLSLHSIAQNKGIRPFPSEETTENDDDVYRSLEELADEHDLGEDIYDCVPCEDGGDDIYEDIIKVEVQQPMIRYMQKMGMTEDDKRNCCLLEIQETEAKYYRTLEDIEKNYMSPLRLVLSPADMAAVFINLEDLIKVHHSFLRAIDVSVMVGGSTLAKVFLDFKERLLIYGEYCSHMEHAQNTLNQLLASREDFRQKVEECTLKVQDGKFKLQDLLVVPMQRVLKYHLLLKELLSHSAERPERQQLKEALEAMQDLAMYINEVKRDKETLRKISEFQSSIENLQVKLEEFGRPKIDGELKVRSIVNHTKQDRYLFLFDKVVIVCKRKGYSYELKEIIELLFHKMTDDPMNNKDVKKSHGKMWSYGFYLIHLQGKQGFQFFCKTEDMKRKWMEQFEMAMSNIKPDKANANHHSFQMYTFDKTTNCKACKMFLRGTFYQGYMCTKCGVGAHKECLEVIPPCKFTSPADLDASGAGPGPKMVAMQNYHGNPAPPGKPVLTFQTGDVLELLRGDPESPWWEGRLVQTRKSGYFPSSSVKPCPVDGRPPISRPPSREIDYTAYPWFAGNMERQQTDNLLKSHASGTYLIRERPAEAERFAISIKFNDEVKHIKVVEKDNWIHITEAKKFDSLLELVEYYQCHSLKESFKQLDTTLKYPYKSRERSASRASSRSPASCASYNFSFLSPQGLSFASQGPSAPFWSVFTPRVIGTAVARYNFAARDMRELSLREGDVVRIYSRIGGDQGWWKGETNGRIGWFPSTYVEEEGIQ
Chain of SREBF1 (Homo sapiens) (P36956 whole entry): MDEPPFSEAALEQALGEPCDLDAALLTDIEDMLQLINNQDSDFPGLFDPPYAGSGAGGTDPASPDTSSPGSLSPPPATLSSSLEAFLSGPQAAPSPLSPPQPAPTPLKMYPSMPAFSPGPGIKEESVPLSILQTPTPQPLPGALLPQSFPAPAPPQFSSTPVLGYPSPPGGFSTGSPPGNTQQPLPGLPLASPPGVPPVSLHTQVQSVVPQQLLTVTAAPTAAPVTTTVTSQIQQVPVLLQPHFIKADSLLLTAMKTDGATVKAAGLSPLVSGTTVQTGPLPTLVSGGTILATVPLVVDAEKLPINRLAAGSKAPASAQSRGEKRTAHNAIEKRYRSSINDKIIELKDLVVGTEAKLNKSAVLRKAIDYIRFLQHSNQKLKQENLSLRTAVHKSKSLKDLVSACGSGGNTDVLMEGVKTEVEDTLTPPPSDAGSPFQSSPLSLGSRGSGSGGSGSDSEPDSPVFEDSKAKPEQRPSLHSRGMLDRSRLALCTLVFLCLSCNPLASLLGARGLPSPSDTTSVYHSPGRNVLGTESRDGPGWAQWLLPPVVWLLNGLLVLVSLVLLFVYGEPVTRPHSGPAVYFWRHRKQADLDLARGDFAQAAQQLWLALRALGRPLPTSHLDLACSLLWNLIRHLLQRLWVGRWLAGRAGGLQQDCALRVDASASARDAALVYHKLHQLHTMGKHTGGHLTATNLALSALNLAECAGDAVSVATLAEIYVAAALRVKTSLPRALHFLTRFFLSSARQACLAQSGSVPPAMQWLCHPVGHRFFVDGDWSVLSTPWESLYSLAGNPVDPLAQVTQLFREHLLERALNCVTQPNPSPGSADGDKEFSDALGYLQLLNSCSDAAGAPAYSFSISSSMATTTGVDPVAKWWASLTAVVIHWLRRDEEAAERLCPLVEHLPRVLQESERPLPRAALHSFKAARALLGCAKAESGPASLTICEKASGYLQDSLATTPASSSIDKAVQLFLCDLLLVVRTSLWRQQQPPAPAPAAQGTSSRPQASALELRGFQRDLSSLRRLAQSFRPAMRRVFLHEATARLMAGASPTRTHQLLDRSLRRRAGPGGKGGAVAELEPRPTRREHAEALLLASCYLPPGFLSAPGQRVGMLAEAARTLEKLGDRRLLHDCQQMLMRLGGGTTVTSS

For orientation: Kd means the free concentration of one partner at which half of the binding sites on the other are occupied at equilibrium, for simple one-to-one binding. As to Vav2 (from UniProt P52735), the Kd was 8.3 nM.
